# According to patent US20220153824A1 (University of Pennsylvania, published 2022):
# T1: human C5a (human, UniProt P01031 678-751)
# T1 construct: domain: C5a; Purified human C5a (Hycult) in ELISA; recombinant human C5a in the Transwell assay; also called free human C5a; recombinant human complement C5a
# T1 sequence (looked up): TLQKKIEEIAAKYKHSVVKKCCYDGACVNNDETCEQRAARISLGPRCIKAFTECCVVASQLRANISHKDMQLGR
# T2: mouse C5a (mouse, UniProt P06684 679-755)
# T2 construct: domain: C5a; also called purified mouse C5a
# T2 sequence (looked up): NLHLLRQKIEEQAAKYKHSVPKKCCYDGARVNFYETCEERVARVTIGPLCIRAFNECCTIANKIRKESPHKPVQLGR
# B1: monoclonal anti-C5a antibody designated mAb 7A12 (antibody, V domains shown)
# VH: QVQLQQSDAELVKPGASVKISCKVSGYTFTDHIIHWMNQRPEQGLEWIGYIYPRDGNTNYNENFKGKATLTADKSSSTAYMQLNSLTSEDSAVYFCARERNLEYFDYWGQGTTLTVSS
# VL: DIVLTQSPASLAVSLGQRATISCKASQSVDYDGDNYMNWYQQKPGQPPKLLIYAASNLDSGIPARFSGSGSGTDFTLNIHPVEEEDAATYYCQQSNEDPYTFGGGTKLEIKR
# notes: also called 7A12 mAb
# Assays:
# human C5a = target: T1, human C5a; assay: ELISA, plate coated with human C5a
# Procedure: Polystyrene microtiter plates were coated with purified human C5 or C5a (50 ng/well, Hycult) in PBS at 37° C. for 1 hr. After aspirating the C5 or C5a solution, wells were blocked with PBS containing 1% BSA in PBS at room temperature for 1 hour. Wells without C5 or C5a coating served as background controls. Different concentration of 7A12 mAb or control anti-C5 mAb or chimeric 7A12, 50 μl/well in blocking solution, were added to the wells. Following 1 hour incubation at room temperature, the wells were extensively washed with PBST. Human C5 or C5a-bound mAb was detected by the addition of anti-mouse IgG HRP 1:4000 dilution in blocking solution, which was allowed to incubate for 1 hour at RT. After washing with PBST, the plate was developed with HRP substrate for 6-10 min. The reaction was stopped with 2N H2SO4 and plate was read at 450 nm in a micro plate reader.
# (§1) An ELISA plate was coated with human C5a or mouse C5a. After incubation with serially diluted 7A12 or the control anti-C5 mAb, bound mAb was detected by HRP-conjugated anti-mouse IgG. […] Since mAb 7A12 reacts with the whole C5 protein (as shown in FIG. 1), it can be concluded that mAb 7A12 binds both the C5a moiety of native human C5 and free human C5a. On the other hand, no binding of the control anti-C5 mAb to human C5a was seen, as depicted in FIG. 3B.
# mouse C5a = target: T2, mouse C5a; assay: ELISA, plate coated with mouse C5a
# Procedure: as §1
binder,measurement,setting,value
B1,binding result,human C5a,binds
same,binding result,mouse C5a,no binding
